Test results taken from US8551742B2 (priority 2007, dated 2013).

Assays:
[1] = system: MetK; assay: MetK mutants radioactive assay in vitro ([methyl-14C]methionine to SAMe); type: biochemical, E. coli; conditions: 5 minute reaction time; C-terminal His tagged proteins unless untagged
Protocol: The metK gene from E. coli (Accession number AP—003499 or BAE77005) was cloned and overexpressed with either an N-terminal or a C-terminal His tag in pET28b vector. Site directed mutagenesis was performed using the C-terminal His tagged metK clone to generate the desired mutants. Expression of the mutant MetK proteins was confirmed.
The MetK mutants were purified (using the C-terminal His tag) and assayed in vitro. The wild type C-terminal His-tagged MetK protein was used as a control. The mutants were assayed using a radioactive assay. The assay conditions were as follows: • Assay Mix: • 1.0 mL 0.5 M HEPES/KOH, pH 8.0 • 0.5 mL 1.0 M KCl • 0.2 mL 1.0 M MgCl2 • 1.0 mL 100 mM ATP (disodium salt, pH 8.0 with KOH) • 0.1 mL 50 mM methionine • 0.1 mL NEN [methyl-^14C]methionine • 6.6 mL H2O • 25 mM EDTA pH 8.0 stop for assays.
45 μl of assay mix was added to an Eppendorf tube and 5 μL of enzyme (normalized data shown in Table 13. The reaction was incubated at room temperature (or 25° C.) for a desired period (1 to 10 minutes). The reaction was stopped with the addition of 150 μL of 25 mM EDTA. 100 μL of the reaction was spotted onto a 2.5 cm diameter Whatman P-81 phosphocellulose filter circle (labeled in pencil). The filters were washed with 3 L of distilled water, air-dried and placed in scintillation vials with aquasol. The emissions were counted using a window that extends from ^14C to about 0. Assay efficiency and quench levels were determined by adding a known amount of counts of pure ^14C-SAM and processing through the whole procedure. Backgrounds are typically<100 cpm (total counts ca. 10^5 cpm per reaction).

[2] = system: excreted Met; conditions: literature reference AEM 2005; cited from earlier work

B1: Val 185 Glu: E. coli MetK mutant, C-terminal His tagged, purified (protein, UniProt P0A817 2-384, looked up, variant V185E)
S-adenosylmethionine synthase: AKHLFTSESVSEGHPDKIADQISDAVLDAILEQDPKARVACETYVKTGMVLVGGEITTSAWVDIEEITRNTVREIGYVHSDMGFDANSCAVLSAIGKQSPDINQGVDRADPLEQGAGDQGLMFGYATNETDVLMPAPITYAHRLVQRQAEVRKNGTLPWLRPDAKSQVTFQYDDGKIVGIDAVELSTQHSEEIDQKSLQEAVMEEIIKPILPAEWLTSATKFFINPTGRFVIGGPMGDCGLTGRKIIVDTYGGMARHGGGAFSGKDPSKVDRSAAYAARYVAKNIVAAGLADRCEIQVSYAIGVAEPTSIMVETFGTEKVPSEQLTLLVREFFDLRPYGLIQMLDLLHPIYKETAAYGHFGREHFPWEKTDKAQLLRDAAGLK
modifications: C-terminal His tag
notes: E. coli MetK mutant, C-terminal His tagged, purified
Q: For B1, which “Activity (CPM SAMe/ μg purified protein/min)” value [1] is on record?
A: 4.9 CPM SAMe/ μg purified protein/min

Q: And the “Expected Effect: increase in excreted Met over control” value [2]?
A: 6.4X increase in
